{"source": "patent CN108314731A", "about": "(ZHUHAI TAINUO MAIBO BIOTECHNOLOGY CO LTD; GUANGZHOU …, dated 2018)", "binders": {"B1": {"name": "TRN0010抗体 (全人源抗破伤风毒素中和抗体) (antibody, V domains shown)", "VH": "QVQLQESGPGLVKPSETLSLRCTVSGGSISSYYWSWFRQPPGKGLEWIGYVHYSGSTNYNPSLKSRFTLSVDTSKSQFSLRLRSVTAADTAIYYCARDKYQTDVSDIWGQGTVVTVSS", "VL": "DIQMTQSPGTLSLSPGERATLSCRASQSITSSFLAWYQQKPGQAPRLLIYGASSRATGIPDRFSGSGSGTDFILTISRLEPEDFAVYYCQQYDTSRTFGQGTTVEIK"}}, "target": "破伤风类毒素 (tetanus toxoid) (破伤风杆菌 (Clostridium tetani), UniProt P04958 2-1315)", "sequence (P04958 2-457 limits assumed, chain 1 of 2)": "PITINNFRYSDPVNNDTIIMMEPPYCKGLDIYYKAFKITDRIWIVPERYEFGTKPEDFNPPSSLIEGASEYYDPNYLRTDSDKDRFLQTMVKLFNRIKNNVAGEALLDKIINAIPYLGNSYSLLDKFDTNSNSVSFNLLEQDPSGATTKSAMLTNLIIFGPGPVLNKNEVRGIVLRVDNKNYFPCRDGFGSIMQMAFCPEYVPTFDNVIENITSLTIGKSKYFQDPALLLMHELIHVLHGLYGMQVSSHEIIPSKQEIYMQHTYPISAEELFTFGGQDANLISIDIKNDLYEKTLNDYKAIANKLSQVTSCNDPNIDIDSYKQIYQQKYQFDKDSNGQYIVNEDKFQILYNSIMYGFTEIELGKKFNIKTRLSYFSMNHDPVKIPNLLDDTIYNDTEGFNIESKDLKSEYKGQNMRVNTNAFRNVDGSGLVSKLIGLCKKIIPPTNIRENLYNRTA", "sequence (P04958 458-1315 limits assumed, chain 2 of 2)": "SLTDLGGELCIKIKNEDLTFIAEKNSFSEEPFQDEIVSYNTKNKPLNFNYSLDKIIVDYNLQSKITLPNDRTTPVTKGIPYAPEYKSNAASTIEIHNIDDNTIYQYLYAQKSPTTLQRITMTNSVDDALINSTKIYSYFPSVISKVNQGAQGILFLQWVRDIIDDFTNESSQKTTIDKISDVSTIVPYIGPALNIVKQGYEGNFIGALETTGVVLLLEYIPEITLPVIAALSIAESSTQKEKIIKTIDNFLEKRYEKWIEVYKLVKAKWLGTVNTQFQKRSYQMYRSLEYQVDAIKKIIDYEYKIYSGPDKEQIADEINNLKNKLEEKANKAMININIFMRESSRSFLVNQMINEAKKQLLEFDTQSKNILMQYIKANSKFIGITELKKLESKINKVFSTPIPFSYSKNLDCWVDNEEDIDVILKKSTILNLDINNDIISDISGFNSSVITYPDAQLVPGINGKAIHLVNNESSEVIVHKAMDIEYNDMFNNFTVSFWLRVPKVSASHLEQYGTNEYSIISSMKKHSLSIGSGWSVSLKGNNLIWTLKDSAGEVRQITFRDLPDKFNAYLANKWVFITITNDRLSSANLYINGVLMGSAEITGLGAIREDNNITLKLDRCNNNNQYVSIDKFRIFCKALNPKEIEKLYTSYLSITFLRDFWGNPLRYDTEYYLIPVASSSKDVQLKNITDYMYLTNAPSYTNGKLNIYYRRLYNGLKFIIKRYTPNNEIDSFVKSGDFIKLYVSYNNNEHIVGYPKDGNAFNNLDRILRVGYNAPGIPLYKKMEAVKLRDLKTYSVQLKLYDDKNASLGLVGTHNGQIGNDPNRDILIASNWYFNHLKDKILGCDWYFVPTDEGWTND"}
{"binder": "B1", "values": [{"measurement": "Kd", "result": 3.68, "unit": "nM"}, {"measurement": "koff", "result": 0.000153, "unit": "s⁻¹"}, {"measurement": "kon", "result": 41500, "unit": "M⁻¹ s⁻¹"}]}
